# Test: soluble fraction after stress (log2 fold change); higher = more stays soluble; pooled small domains, quantitative proteomics
# Details: stress: 50 degC
# Outline: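 Pooled custom libraries of small protein domains were each held under stress at 50°C. The read-out, high-throughput quantitative proteomics, tracked how much of each protein stayed soluble. This is reported as a base-two log fold change used to indicate aggregation propensity. Higher values mean more protein remains in solution.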
row,Sequence,soluble fraction (log2)
1,HMSTRYVRTPAGQAEIQARVFKLSRPVRNLLLVINDSRSIDDWLVQVHGITADDVAMLRAEGLIAEVS,-2.4
2,HMSAQPMEYSRFYSDVTQGRVAEVEIEGREINGRLSTGERFKTFSPETDNKALIGHLLDNGVVIEGKPP,0.234
3,HMNSRAERKEAAKEAIRNLLREGMTFEELTGPWLEKRFAEEPFNRGARSWQMLISEIKEEPEFQHL,0.00166
4,HMDMSVDQFNQGIRGSELYQQFIHGRGLQQPDGKTREWTDADRNAWRRTLEASGVRIPDGMKIDNAGNLNE,0.275
5,HMPDYYAILEVERTADAKTIKAAYRKLALAYHPDRNPGDQAAEERFKQINEAYAVLSDPEKRARYDRYGSV,-0.31
6,HMNVTIGESIKNVINHYGTPIYSYNPNNQEKYYEFHTNKGVLVVTAIGKKNTGYVTRVSMTY,-1.18
7,HMKNTADRVYENLFHMLVSGDYAPGDRIPSEHELKERFNVSRNTIRAALNRMNALGIIETRQGDGTYLKG,-0.243
8,HMGDTIFINNNFYVKHIVEFGETIDIISKIYDVSVNKILETNETSTKLYSGQSLFIPININV,-3.4
9,HMDAPIIRLLNSLVQRAVTTTASDIHIEPFEGETKVRMRIDGVIIDYVTLQRALHQPLIARIKIMSNLD,-0.202
10,HMNADKEALIAAAYRNSLIENFGTENVERYEERFNKWADKHDRQGMPMYPTIEKWMNEDNIA,0.111
11,HMGMKTSQKLARQREIVRLIRAQTIRTQAELADALRERAFPVSQPTLSKDIAELGLIKVPLPDSGYRYQLP,-0.378
12,HMTVPMKILILEDEQRNAMRLIRLLNDIDTTFIIEGPLTNIKEAVDFFQSGKTTDLILADIRL,-0.147
13,HMEEIDLTPAEEILNKLPDNSRGYLIPTLNKIQNAYRFLPDPAMELLMEFFNVSRAEIFGVISFYPQLMI,-0.0574
14,HMPVSRMRARHEALARGVMGIHAGGFSAVYGYRKVWHGLIGKGWDPGEVGRDQVMNIMRGLGMQGVRR,0.266
15,HMQTTDTGAIETIVDELMAANPDKVEAYRGGKTGLQGFFMGQVMKQLGGQGNPKVISAIVTEKLE,≥ 0.62
16,HMDNPVPVIITDQNFQPQLWKNVGVPTDTLFHELSAANQRKLENLMKTMIQTPLTDNGKISGYAFYSK,0.0665
17,HMIHSEEIQDHIFVKQLGEVFLRNHINYENIMKSWDDHTNVIKRFRRYPHRNKILNRESTIDEISFLKE,-0.0665
18,HMKSATGKIPDFISDLPVDEFVRELIVTNAFQPLNKFKEVQNHIGSALKIYVDELTEKRANGTVHILYSHK,0.077
19,HMNIEIIEVQEESTPSEISKIISTESTKIIEDLLNLGVMASLETPLKNQDIEKLLEGYGYIVDIKP,-0.372
20,HMAADRRKAERPLIDGQAVMDRFEVGPGPMVGKALKFLLALKRAEPDLDLAGTEERLDAWWNEQL,0.262
21,HMDTIRINSGSTVKEVAEYLGIPVPEVIKKLMSMGELATLTKTLSDDHIEVLAEEFEKKIKIVHVGEEAD,0.0343
22,HMIGTPLSEWQKDAPEEITRDQIAELVILKFVTVEQLALASDAQLQRIGMGGVGLRERAKLYLNRK,-1.15
23,HMSFNISPTKKLILELIMNGTAAVEAIAVKAGISKGMAYNHLRELRSMGYITDEGGYKITDSGRLAV,-0.414
24,HMKKKSYIVSFATDEDAQRFAREGFEVISLSGRQITVSLKGEMMPLVKALGSYQVVGLETVA,-0.19
25,HMQSITAGDKVRVKNYTVSGGKKRGKVYGGAGTFVVYYEKYDVISVTGDRVVIGIGKAVTAAVHIDDLEK,-1.15
26,HMVEIPEFKITTFVNTDNEQIAEFENGFTDKKAEITFNNTKYVFKEKLPDQDGIRTYVYEELHE,0.117
27,HMREPDPELTASIKSMAESNDQSERLVALAQLSEQRAVDPEVADQILLIALLDEDPIIRGQAVYA,0.264
28,HMDEWKRKELWDAIARLPKIQRMVVTMRTTENLPYKEIAKIMNISENSAKVNYHHAVEALKIFF,-2.66

row,Sequence,soluble fraction (log2)
1,HMGLQLTPVRRRVLEILLHEHRALGAYDILDKLRSEGLGSQPPVAYRALDFLVTHGFAHKIERLNAF,-0.609
2,HMTTLDTVARQLRDRIREQLDPTGEMSDESLLRTIEEAVYRYSSSGHVLTANEKETVIRRIFHSFR,0.0252
3,HMRDANYFINPIHEWQKRYEALRASFVDRLPAQAVAQRFGYTITYIHLLRHQFKSGKIDFSEPVPEG,-4.61
4,HMVTIYQRIMLVLEDKQVSVNALSKLVDMSQTTLNTQLKGERTLSANVVAKVLVAYPDVSAEWLMRGVGTM,0.362
5,HMSSQVFLGQKNSIAKYDLNENKPIWTKEIKGTPLILSTWKDMLLIQIQTWVSYTHMLVKQENGQTVWE,0.318
6,HMTGTKEQQVVMLNNILQKQLQAFELQGKRDYPMVTMKNMYNTLSKMVENAGLQTVESYFVDPIKGQQM,-0.0334
7,HMSRQAPIGHRIRGRRKDIGMTQNALAKAAGISPSYLNLIEHNRRSIGGGLLMRIAAILDIHPHTL,-2.23
8,HMSEVSEILTRARFFAGVKTDAELSTLLKIPYGTLIGWKTRKNIPESRIAQMALILGIRRDTLIPA,-1.71
9,HMEDPFLWVEKLGSSDWIEREESAEKLLEAGEASVEALRTALTHPDLEVRERVRELLSVISPL,-0.104
10,HMGLDNEGFERLRQKITRLLSEEALPVKELVDSFASKMRQEVLETLAFLQQEGVIEEKNGKLFLK,0.0365
11,HMSENEIDELRRRFAREAMALMERKGEEVSRTRLAAELSVARARIDAVFPEESDLLEAVTAEWFA,-0.562
12,HMSNNENSILEKLNSFSGKKIKVSHTIGSLAARLDEYPKIKMWLYKRIRENSINEQAYKYLIFIIERKVR,-1.2
13,HMRIWTPEMIKEYIISSNGKEPLNSHYYSTNHPSIYAAAERIFGSWGNAINAAGLDYNAIRKYK,-0.00482
14,HMEEGKVKRMAMDMVDAFYDKVSAMVDDNNDLGRSVVDAWDDEEENPPEYMLDDETRAILVNAGKIEPE,0.0748
15,HMVTDTGEIEAIIDRVISENPDSVSDFKNGKERALKFLMGQAMKESKGKANPQIVNELLLKKL,0.264
16,HMQISYDVPNLIGKSYEEVMTDPSILGEHFTVVLGETKTDEDTDAGVILHQDPAADSKVQDEVTPITVTVS,0.42
17,HMRQTGWVTADSLNVRARPSLQAERVEKVTYGQQVQIMFKQGQWYQIATENGKIGWVSSEYIAAVSP,-0.0654
18,HMELLPAERRQQLVDWFKSNQAGTSQDLARMFGISVSTIRRDLDLLASEGLVKRTHGGAVSIR,0.0027
19,HMVVSDSAEIDKIVQDVIAANPKAIEDFKSGKTNVTGWLMGQVMKLSHGKANPKQATEILNKYLSK,0.354
20,HMVIREVNDNPVSAEELRLGDRVKVLSLGQNGEIVTLPDEKGELTVQVGILKAKVNLDDIMLI,0.0226
21,HMYAHTPEMEAMNELGLEPPVTLDEIKKTYKTLVKKYHPDHNKEDPEAEEKLKKVNMAYTILKVAYTEFEK,-0.147
22,HMNETHANKVYNFLKKKKKPLSAYEILKELASEGISAPTTIYRALNKLVSNGLIHKIESLNAWTV,0.318
23,HMEVVELTDDEKMILATLHDGPVEIGHIKQVVGLSGKKWDAATKSLRQKGLINVVLENEQKLMVK,0.422
24,HMVQARDQNIEEGRQLVLRELDRLDLVNESLTDVAADMNMKSVEDMYAAIGAGDLRVGQVVHAVLKRAD,0.00761
25,HMGKTKFTEMSALELKAYAELNNNSMHWVYRMLYIGGGDVGFRKGMKELGYSGKFIWMTLERLKKS,-1.32
26,HMREGRERRLSQLLSYLRTHHILTRSEYVKLTGLSPTAASSELKTFVTAGHIVRKGIASHSTYRLPH,-1.71
27,HMRERLPFGFAQSKKVVLLSTESDTPKVLSVNWPSLDLYAELKRVIGRAFLLEIVSEEEFQAQVSDAYQRD,-2.24
